Assay results taken from patent US20120178139A1 (published 2012).

Tests used:
[1] = biological target: T1, mouse glycophorin-A on mouse erythrocytes (mouse, UniProt P14220 1-168); test: equilibrium binding to mouse erythrocytes, flow cytometry, one-site binding fit
[2] = biological target: T1, mouse glycophorin-A on mouse …; test: in vivo, geometric mean fluorescence of circulating erythrocytes by flow cytometry, one-phase exponential decay
Description: Consistent with glycophorin-A association, ERY1-OVA bound to erythrocytes (CD45⁻) but not to leukocytes (CD45⁺). ERY1-OVA binding was unbiased as to the apoptotic state of the erythrocytes, binding strongly to both annexin-V⁺ and annexin-V⁻ CD45⁻ populations (FIG. 9b).
150 μg of ERY1-OVA or OVA in 0.9% saline (B. Braun) in a volume of 100 μL was injected intravenously into the tail of 8-12 week old female C57BL/6 mice while under anesthesia with isoflurane. Care was taken to ensure mice were kept at 37 C with a heating pad during experimentation. At predetermined time points, 5 μL of blood was taken from a small incision on the tail, diluted 100-fold into 10 mM EDTA in PBS, washed three times with PBS with 10 mg/mL BSA, and analyzed for OVA content by flow cytometry and ELISA. OVA was quantified by sandwich ELISA, using a mouse monoclonal anti-OVA antibody (Sigma) for capture, a polyclonal rabbit anti-OVA antibody (AbD SEROTEC) for detection, a goat anti-rabbit-IgG-HRP antibody (BioRad) for final detection, followed by TMB substrate (GE Life Sciences). Hematological characterization was performed on an ADVIVA 2120 Hematology System (Siemens). Erythrocyte-bound ERY1-GST was detected by incubating labeled cells with goat anti-GST (GE Healthcare Life Sciences), followed by incubation with AlexaFluor488 donkey anti-goat (Invitrogen), and analyzed by flow cytometry. […]

[3] = biological target: T1, mouse glycophorin-A on mouse …; test: photo-crosslinking of biotinylated peptide to whole mouse erythrocytes, streptavidin pull-down and streptavidin Western blot
Description: When whole erythrocytes were incubated with ERY1 peptide functionalized with biotin and a photoactivatable crosslinker, a single 28 kDa protein was conjugated with the peptide-biotin complex, as detected by a streptavidin Western blot (FIG. 2A). The reaction lysate was extensively washed and purified using streptavidin magnetic beads to ensure no unlabeled proteins from the erythrocyte lysate remained. […] The mismatch peptide, […] (SEQ ID NO:2), was designed to contain the same amino acid residues as ERY1, and to match its hydrophobicity topography. […] Anti-GYPA Western blotting of the same purified samples from the crosslinking reaction confirmed that the candidate biotinylated protein was indeed GYPA (FIG. 2B).
In brief, peptides were solubilized in PBS/DMF and reacted with 1.05 equivalents of Mts-atf-biotin overnight at 4° C. Following clarification of the reaction by centrifugation, biotinylated peptide was incubated with erythrocytes at in PBSA-50 for 1 h at 37° C., cells were washed twice in fresh PBS, and were UV irradiated at 365 nm for 8 min at room temperature. Cells were lysed by sonication and the lysate was purified using streptavidin-coated magnetic beads (Invitrogen). The eluate was run on an SDS-PAGE and transferred to a PVDF membrane, and immunoblotted with streptavidin-HRP(R&D Systems) or anti-mouse GYPA.

Row | Kd [1] | cell-surface half-life [2] | binding result [3] | Binder
1 | 6.2 nM | 17.2 h | – | ERY1-OVA (ovalbumin chemically conjugated with ERY1 peptide through SMCC) (other, C-terminal amide; cysteine side chain conjugated via SMCC to lysines of OVA; lysine side chains carry SMCC linked to the cysteine of the ERY1 peptide, also called ERY1-conjugated antigen) GSIGAASMEFCFDVFKELKVHHANENIFYCPIAIMSALAMVYLGAKDSTRTQINKVVRFDKLPGFGDSIEAQCGTSVNVHSSLRDILNQITKPNDVYSFSLASRLYAEERYPILPEYLQCVKELYRGGLEPINFQTAADQARELINSWVESQTNGIIRNVLQPSSVDSQTAMVLVNAIVFKGLWEKAFKDEDTQAMPFRVTEQESKPVQMMYQIGLFRVASMASEKMKILELPFASGTMSMLVLLPDEVSGLEQLESIINFEKLTEWTSSNVMEERKIKVYLPRMKMEEKYNLTSVLMAMGITDVFSSSANLSGISSAESLKISQAVHAAHAEINEAGREVVGSAEAGVDAASVSEEFRADHPFLFCIKHIATNAVLFFGRCVSP peptide: WMVLPWLPGTLDGGSGCRG
2 | – | – | no binding | H-PLLTVGMDLWPWGGSGCRG-NH2 (not fully specified (residue 17); also: conjugated to Mts-Atf-biotin, Same amino acids as ERY1, scrambled) [mismatch peptide, soluble, biotinylated (H2N-PLLTVGMDLWPWGGSGCRG-CONH2 conjugated to Mts-Atf-biotin)]
